# Reference: publication PMC9482650, “Quantitative fragmentomics allow affinity mapping of interactomes” (Nature Communications, 2022)
# B1: KCNA5, P22460 (peptide)
# chain: CLDTSRETDL
# B2: MAP2K2, P36507 (peptide)
# chain: QPGTPTRTAV
# B3: PDLIM7, Q9NR12;Q9NR12-1 (peptide)
# chain: LCKSHAFSHV
# B4: RAPGEF2, Q9Y4G8 (peptide)
# chain: EDEDEQVSAV
# B5: NRXN1, Q9ULB1 (peptide)
# chain: KKNKDKEYYV
# Tests used:
# Assay in all cases: holdup assay
# Design in all cases: key: below the threshold = too weak to quantify, mostly under pKd 3.1 to 4
# [1] = target: T1, APBA2_2, Q99767
# T1 sequence (Q99767 654-744, limits assumed, looked up): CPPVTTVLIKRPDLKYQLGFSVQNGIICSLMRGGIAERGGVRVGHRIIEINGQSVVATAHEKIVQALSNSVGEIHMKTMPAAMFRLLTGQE
# [2] = target: T2, DFNB31_2, Q9P202
# T2 sequence (Q9P202 274-371, limits assumed, looked up): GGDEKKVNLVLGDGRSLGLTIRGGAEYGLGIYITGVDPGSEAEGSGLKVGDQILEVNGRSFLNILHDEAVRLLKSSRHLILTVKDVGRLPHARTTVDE
# [3] = target: DLG1_1, Q12959
# [4] = target: DLG2_3, Q15700
# [5] = target: T3, DLG3_1, Q92796
# T3 sequence (Q92796 125-227, limits assumed, looked up): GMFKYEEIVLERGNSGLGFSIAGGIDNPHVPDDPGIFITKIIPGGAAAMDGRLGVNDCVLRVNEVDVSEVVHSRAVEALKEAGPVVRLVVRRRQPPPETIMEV
# [6] = target: T4, DVL3, Q92997
# T4 sequence (Q92997 244-331, limits assumed, looked up): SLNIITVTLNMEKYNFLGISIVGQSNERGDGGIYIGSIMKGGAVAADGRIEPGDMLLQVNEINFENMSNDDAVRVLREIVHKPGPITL
# [7] = target: T5, FRMPD1, Q5SYB0
# T5 sequence (Q5SYB0 52-145, limits assumed, looked up): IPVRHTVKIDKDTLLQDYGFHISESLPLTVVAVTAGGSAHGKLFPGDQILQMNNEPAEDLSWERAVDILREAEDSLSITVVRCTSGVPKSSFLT
# [8] = target: GORASP1, Q9BQQ3
# Sequence of GORASP1, Q9BQQ3 (Q9BQQ3 1-208): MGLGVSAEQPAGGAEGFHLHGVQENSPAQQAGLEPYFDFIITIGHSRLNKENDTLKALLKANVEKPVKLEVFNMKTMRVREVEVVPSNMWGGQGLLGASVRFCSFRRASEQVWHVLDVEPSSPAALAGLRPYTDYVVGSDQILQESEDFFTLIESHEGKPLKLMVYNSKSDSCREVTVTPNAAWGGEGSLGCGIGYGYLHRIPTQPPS
# [9] = target: GRIP2_4, Q9C0E4
# Sequence of GRIP2_4, Q9C0E4 (Q9C0E4 446-548): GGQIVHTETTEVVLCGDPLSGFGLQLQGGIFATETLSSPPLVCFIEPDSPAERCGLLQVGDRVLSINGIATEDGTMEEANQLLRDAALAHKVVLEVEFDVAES
# [10] = target: GRIP2_5, Q9C0E4
# Sequence of GRIP2_5, Q9C0E4 (Q9C0E4 544-642): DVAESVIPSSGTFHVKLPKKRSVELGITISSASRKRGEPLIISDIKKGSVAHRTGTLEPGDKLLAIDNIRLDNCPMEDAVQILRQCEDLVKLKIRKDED
# [11] = target: GRIP2_6, Q9C0E4
# Sequence of GRIP2_6, Q9C0E4 (Q9C0E4 648-740): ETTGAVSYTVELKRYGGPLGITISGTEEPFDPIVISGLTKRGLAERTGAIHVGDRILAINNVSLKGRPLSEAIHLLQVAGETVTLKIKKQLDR
# [12] = target: GRIP2_7, Q9C0E4
# Sequence of GRIP2_7, Q9C0E4 (Q9C0E4 934-1023): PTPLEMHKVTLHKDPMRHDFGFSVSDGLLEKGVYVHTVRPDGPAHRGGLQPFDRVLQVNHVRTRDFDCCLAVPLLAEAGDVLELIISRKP
# [13] = target: HTRA2, O43464
# Sequence of HTRA2, O43464 (O43464 355-458): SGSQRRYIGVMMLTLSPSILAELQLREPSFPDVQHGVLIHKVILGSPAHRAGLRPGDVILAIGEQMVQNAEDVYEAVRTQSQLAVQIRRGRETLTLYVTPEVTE
# [14] = target: Inadl_10, Q8NI35
# Sequence of Inadl_10, Q8NI35 (Q8NI35 1673-1763): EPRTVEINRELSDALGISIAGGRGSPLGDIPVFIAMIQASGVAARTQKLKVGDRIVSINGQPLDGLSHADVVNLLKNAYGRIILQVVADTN
# [15] = target: LDB3, O75112
# Sequence of LDB3, O75112 (O75112 1-94): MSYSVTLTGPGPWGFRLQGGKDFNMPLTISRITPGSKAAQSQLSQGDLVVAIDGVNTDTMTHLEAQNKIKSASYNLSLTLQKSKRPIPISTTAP
# [16] = target: T6, LIN7C, Q9NUP9
# T6 sequence (Q9NUP9 88-185, limits assumed, looked up): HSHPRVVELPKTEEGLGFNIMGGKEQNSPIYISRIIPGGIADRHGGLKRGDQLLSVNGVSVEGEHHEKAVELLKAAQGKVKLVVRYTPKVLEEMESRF
# [17] = target: T7, LNX2_2, Q8N448
# T7 sequence (Q8N448 334-432, limits assumed, looked up): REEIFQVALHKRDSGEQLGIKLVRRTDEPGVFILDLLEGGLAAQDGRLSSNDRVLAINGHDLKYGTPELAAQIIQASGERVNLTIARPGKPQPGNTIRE
# [18] = target: MAGI1_2, Q96QZ7
# Sequence of MAGI1_2, Q96QZ7 (Q96QZ7 456-580): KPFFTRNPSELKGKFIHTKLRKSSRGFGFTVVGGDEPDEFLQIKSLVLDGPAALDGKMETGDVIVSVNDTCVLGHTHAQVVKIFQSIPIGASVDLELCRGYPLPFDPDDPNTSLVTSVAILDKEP
# [19] = target: T8, MPDZ_10, O75970
# T8 sequence (O75970 1624-1722, limits assumed, looked up): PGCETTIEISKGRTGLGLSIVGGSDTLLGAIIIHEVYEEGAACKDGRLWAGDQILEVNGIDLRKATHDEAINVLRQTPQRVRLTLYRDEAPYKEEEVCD
# [20] = target: T9, MPP2, Q14168
# T9 sequence (Q14168 180-250, limits assumed, looked up): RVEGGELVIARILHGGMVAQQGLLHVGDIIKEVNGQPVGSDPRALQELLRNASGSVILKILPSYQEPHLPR
# [21] = target: NHERF4_2, Q86UT5
# Sequence of NHERF4_2, Q86UT5 (Q86UT5 220-308): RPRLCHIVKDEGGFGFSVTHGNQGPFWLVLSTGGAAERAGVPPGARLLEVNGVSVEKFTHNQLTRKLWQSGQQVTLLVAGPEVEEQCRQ
# [22] = target: NOS1, P29475
# Sequence of NOS1, P29475 (P29475 9-101): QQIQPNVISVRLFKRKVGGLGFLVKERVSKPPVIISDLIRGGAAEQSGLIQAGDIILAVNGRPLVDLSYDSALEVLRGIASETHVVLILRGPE
# [23] = target: PARD3_3, Q8TEW0
# Sequence of PARD3_3, Q8TEW0 (Q8TEW0 582-685): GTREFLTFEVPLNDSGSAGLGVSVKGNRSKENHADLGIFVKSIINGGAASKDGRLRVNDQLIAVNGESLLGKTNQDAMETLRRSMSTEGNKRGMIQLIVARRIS
# [24] = target: SCRIB_3, Q14160
# Sequence of SCRIB_3, Q14160 (Q14160 999-1103): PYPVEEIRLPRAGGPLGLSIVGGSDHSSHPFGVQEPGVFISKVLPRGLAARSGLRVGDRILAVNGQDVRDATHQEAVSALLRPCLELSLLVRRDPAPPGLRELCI
# [25] = target: T10, SIPA1L2, Q9P2F8
# T10 sequence (Q9P2F8 945-1036, limits assumed, looked up): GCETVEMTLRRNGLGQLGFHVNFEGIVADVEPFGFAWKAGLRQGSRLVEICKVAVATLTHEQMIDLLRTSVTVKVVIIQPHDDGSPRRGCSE
# [26] = target: T11, TX1BP3, O14907
# T11 sequence (O14907 10-122, limits assumed, looked up): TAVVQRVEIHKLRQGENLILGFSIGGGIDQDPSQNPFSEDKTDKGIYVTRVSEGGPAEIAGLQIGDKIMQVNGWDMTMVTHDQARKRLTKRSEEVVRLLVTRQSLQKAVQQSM
# [27] = plain residues with an end cap or a label only (N-terminal biotin on a linker: ttds)
# [28] = plain residues with an end cap or a label only (N-terminal biotin on a linker: ahx)
binder,measurement,setting,value
B1,pKd,[1]; [27],below the threshold
same,pKd,[2]; [27],below the threshold
same,pKd,[3]; [27],3.79
same,pKd,[4]; [27],below the threshold
same,pKd,[5]; [27],3.49
same,pKd,[6]; [27],below the threshold
same,pKd,[7]; [27],below the threshold
same,pKd,[8]; [27],below the threshold
same,pKd,[9]; [27],below the threshold
same,pKd,[10]; [27],below the threshold
same,pKd,[11]; [27],3.54
same,pKd,[12]; [27],below the threshold
same,pKd,[13]; [27],below the threshold
same,pKd,[14]; [27],below the threshold
same,pKd,[15]; [27],below the threshold
same,pKd,[16]; [27],3.74
same,pKd,[17]; [27],below the threshold
same,pKd,[18]; [27],below the threshold
same,pKd,[19]; [27],below the threshold
same,pKd,[20]; [27],below the threshold
same,pKd,[21]; [27],below the threshold
same,pKd,[22]; [27],below the threshold
same,pKd,[23]; [27],3.48
same,pKd,[24]; [27],5.23
same,pKd,[25]; [27],below the threshold
same,pKd,[26]; [27],4.28
B2,pKd,[1]; [27],below the threshold
same,pKd,[2]; [27],below the threshold
same,pKd,[3]; [27],3.53
same,pKd,[4]; [27],3.91
same,pKd,[5]; [27],below the threshold
same,pKd,[6]; [27],below the threshold
same,pKd,[7]; [27],below the threshold
same,pKd,[8]; [27],below the threshold
same,pKd,[9]; [27],below the threshold
same,pKd,[10]; [27],below the threshold
same,pKd,[11]; [27],below the threshold
same,pKd,[12]; [27],below the threshold
same,pKd,[13]; [27],below the threshold
same,pKd,[14]; [27],below the threshold
same,pKd,[15]; [27],below the threshold
same,pKd,[16]; [27],below the threshold
same,pKd,[17]; [27],below the threshold
same,pKd,[18]; [27],below the threshold
same,pKd,[19]; [27],3.59
same,pKd,[20]; [27],below the threshold
same,pKd,[21]; [27],below the threshold
same,pKd,[22]; [27],3.96
same,pKd,[23]; [27],3.54
same,pKd,[24]; [27],below the threshold
same,pKd,[25]; [27],below the threshold
same,pKd,[26]; [27],3.97
B3,pKd,[1]; [28],below the threshold
same,pKd,[2]; [28],below the threshold
same,pKd,[3]; [28],below the threshold
same,pKd,[4]; [28],below the threshold
same,pKd,[5]; [28],below the threshold
same,pKd,[6]; [28],below the threshold
same,pKd,[7]; [28],below the threshold
same,pKd,[8]; [28],below the threshold
same,pKd,[9]; [28],below the threshold
same,pKd,[10]; [28],below the threshold
same,pKd,[11]; [28],below the threshold
same,pKd,[12]; [28],below the threshold
same,pKd,[13]; [28],below the threshold
same,pKd,[15]; [28],below the threshold
same,pKd,[16]; [28],below the threshold
same,pKd,[17]; [28],below the threshold
same,pKd,[19]; [28],4.07
same,pKd,[20]; [28],below the threshold
same,pKd,[21]; [28],below the threshold
same,pKd,[23]; [28],below the threshold
same,pKd,[24]; [28],below the threshold
same,pKd,[25]; [28],below the threshold
same,pKd,[26]; [28],3.95
B4,pKd,[1]; [28],below the threshold
same,pKd,[2]; [28],below the threshold
same,pKd,[3]; [28],below the threshold
same,pKd,[4]; [28],below the threshold
same,pKd,[5]; [28],below the threshold
same,pKd,[6]; [28],below the threshold
same,pKd,[7]; [28],below the threshold
same,pKd,[8]; [28],below the threshold
same,pKd,[9]; [28],below the threshold
same,pKd,[10]; [28],below the threshold
same,pKd,[11]; [28],below the threshold
same,pKd,[12]; [28],below the threshold
same,pKd,[13]; [28],below the threshold
same,pKd,[14]; [28],below the threshold
same,pKd,[15]; [28],below the threshold
same,pKd,[16]; [28],below the threshold
same,pKd,[17]; [28],below the threshold
same,pKd,[18]; [28],below the threshold
same,pKd,[19]; [28],3.82
same,pKd,[20]; [28],below the threshold
same,pKd,[21]; [28],below the threshold
same,pKd,[22]; [28],3.67
same,pKd,[23]; [28],3.91
same,pKd,[24]; [28],below the threshold
same,pKd,[25]; [28],below the threshold
same,pKd,[26]; [28],below the threshold
B5,pKd,[1]; [28],below the threshold
same,pKd,[2]; [28],below the threshold
same,pKd,[3]; [28],below the threshold
same,pKd,[4]; [28],below the threshold
same,pKd,[5]; [28],below the threshold
same,pKd,[6]; [28],3.61
same,pKd,[7]; [28],below the threshold
same,pKd,[8]; [28],3.8
same,pKd,[9]; [28],below the threshold
same,pKd,[10]; [28],below the threshold
same,pKd,[11]; [28],3.91
same,pKd,[12]; [28],4.55
same,pKd,[13]; [28],below the threshold
same,pKd,[14]; [28],below the threshold
same,pKd,[15]; [28],below the threshold
same,pKd,[16]; [28],below the threshold
same,pKd,[17]; [28],4.16
same,pKd,[18]; [28],below the threshold
same,pKd,[19]; [28],below the threshold
same,pKd,[20]; [28],3.69
same,pKd,[21]; [28],below the threshold
same,pKd,[22]; [28],3.57
same,pKd,[23]; [28],4.29
same,pKd,[24]; [28],below the threshold
same,pKd,[25]; [28],below the threshold
same,pKd,[26]; [28],below the threshold
